The supplement of paper PMC9170038

System: MS2 coat protein
Experiment: apparent KD of MS2 coat protein; designed switch direction (-1 OFF switch, 1 ON switch): 1; higher = weaker reporter binding
In short: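 Designed RNA switches with common flanks were transcribed on Illumina chips by stalled E. coli RNA polymerase and titrated with SNAP-549-labelled MS2 coat protein, from 0.7 or 1.5 nM doubling to 3 µM, in Tris-HCl pH 7.5 buffer with KCl, MgCl2, BSA, DTT, tRNA and Tween-20. Steps lasted 0.8–1.5 h (lowest) to 10–20 min (highest). Titrations ran without input, with 200 uM small-molecule ligand, or with an oligonucleotide input. Normalised cluster fluorescence was curve-fitted, and apparent KD is the per-design median over clusters.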

[1] = Eterna round: R95, input ligand: FMN 200 uM
[2] = Eterna round: R95, input ligand: microRNA oligo, concentration not stated
[3] = Eterna round: R95, input ligand: none
[4] = input ligand: microRNA oligo, concentration not stated

Row | Sequence | apparent KD of MS2 coat protein [1] [µM] | apparent KD of MS2 coat protein [2] [µM] | apparent KD of MS2 coat protein [3] [µM] | apparent KD of MS2 coat protein [4] [µM] | apparent KD of MS2 coat protein (input ligand: FMN 200 uM) [µM] | apparent KD of MS2 coat protein (input ligand: none) [µM]
1 | UGUCCAGCCUGAGCUGGACAAAAGCAUGUACAUGAGGAUCACCCAUGUUCAUGUACAAGCUUUUUGCUCGUCUUAUU [salish99_208a_r3_048] (puzzle: Sensor for hsa-mir-208a) | 0.465 | 0.0141 | 0.491 | – | – | –
2 | UGUGUCAUAGGUUUUUUAGCUCGUCUGAUACAUGAGGAUCACCCAUGUUAUAGCCCUGUGCUUGCGCAGGGCUGAGG [JL shm-2.xx] (puzzle: Sensor for hsa-mir-208a) | 0.0502 | 0.0366 | 0.0567 | – | – | –
3 | UGUUGUAUUACAGGAUAUCUAGUAUGUUUAUUUAGAGAAGGGUAUUCACAUGAGGAUCACCCAUGUAUAUACGAGGAAGUUGUG [JMF's solution 38] (Eterna round: R96, puzzle: Same State NG 1) | – | – | – | 0.0308 | – | –
4 | UGUUGUAUUACAGGAUAUCUAGUAUUAUUAUUUAGAGAAGGGUAUUCACAUGAGGAUCACCCAUGUAUAUACGAGGAAGUUGUG [JMF's solution 39] (Eterna round: R96, puzzle: Same State NG 1) | – | – | – | 0.0282 | – | –
5 | UGUUGUAUUACAGGAUAUCUAUUAGUUAUAUUUAGAGAAGGGUAUUCACAUGAGGAUCACCCAUGUAUAUACGAGGAAGUUGUG [JMF's solution 91] (Eterna round: R96, puzzle: Same State NG 1) | – | – | – | 0.0423 | – | –
6 | UGUUGUAUUACAGGAUAUCUAUUGUUUUUGUUUAGAGAAGGGUAUUCACAUGAGGAUCACCCAUGUAUAUACGAGGAAGUUGUG [JMF's solution 80] (Eterna round: R96, puzzle: Same State NG 1) | – | – | – | 0.045 | – | –
7 | UUAAAACAUGAGGAUCACCCAUGUAAUAUAAUGGGAGGAUAUCUGAUUUAAUUAAAUUUAAGAGAAGGCCUAAAUU [Mat - Same State 1 - Mod of Eli - D55] (puzzle: Same State 1) | 0.0289 | 0.128 | 0.169 | – | – | –
8 | UUAAAACAUGAGGAUCACCCAUGUCAACAAAGUCGAGGAUAUGGGCAAAUAAAAUAAGAACCAGAAGGCGAAUAAC [salish99_SS1_r3_007] (puzzle: Same State 1) | 0.0439 | 0.422 | 0.39 | – | – | –
9 | UUAAGCCACGGGCAGGAUAUGUAUUAAAGUACAUGAGGAUCACCCAUGUGCAGGUGUAACACCUGACAGAAGGGCCAAUCGCGGC [Soondi - 3] (puzzle: Same State 2) | 0.016 | 0.068 | 0.0727 | – | – | –
10 | UUAAUAAUGUUAGGAUAUACAUGAGGAAUCCUCGUAGAAGGAACAUGACAUGAGGAUCACCCAUGUAGCGCUCCGUAGAGCGCA [Mat - Same State NG 1 - JL mod - D45] (Eterna round: R96, puzzle: Same State NG 1) | – | – | – | 0.0532 | 1.6 | 0.164
11 | UUAAUUAAUUAAUUAUACAUGAGGAUCACCCAUGUAAGUGAUCAGGAUAUCAGCUCGAUUAGAGCUGAGAAGGGAUACAUGAAU [SSNG3/12-A2] (Eterna round: R96, puzzle: Same State NG 3) | – | – | – | 0.0883 | 0.0944 | 0.139
12 | UUACUCAUGUAAGGAUAUGCAGCCGAAACGGCUGCAGAAGGUACUAUAAUACAUGAGGAUCACCCAUGUAAAAUAUAUAAAGUU [Mat - Same State NG 1 - JL mod - D96] (Eterna round: R96, puzzle: Same State NG 1) | – | – | – | 0.0336 | 0.0339 | 0.0282
13 | UUACUCAUGUAAGGAUAUGCAGCCGAAACGGCUGCAGAAGGUACUAUAAUACAUGAGGAUCACCCAUGUCAAAAUAAUUAAAAC [Mat - Same State NG 1 - JL mod - D72] (Eterna round: R96, puzzle: Same State NG 1) | – | – | – | 0.026 | 0.0348 | 0.0269
14 | UUAUAACAUGAGGAUCACCCAUGUCAUCUAAGUCGAGGAUAUGGGCAAAUAUAAUAAGAACCAGAAGGCGAAUAUU [Mat - Same State 1 - Mod of UCT - D33] (puzzle: Same State 1) | 0.141 | 0.0142 | 0.0499 | – | – | –
15 | UUCCCAUCGGGAGGAUAUGGUUCCUUAUUGGUUCUAGAAGGUCCAACAUGAGGAUCACCCAUGUGGGAGUGGUCUAAUGACCUC [SS NG10LRO05] (Eterna round: R96, puzzle: Same State NG 1) | – | – | – | 0.256 | 0.889 | 0.702
16 | UUCCUACAUGAGGAUCACCCAUGUGACGCCUCGAUAGGAUAUGCGUGUGCCUUGGCGCAUGCAGAAGGAUUGUAGC [JL Aveso mod 8] (puzzle: Same State 1) | 0.224 | 0.0276 | 0.0214 | – | – | –
17 | UUCUCAUUUACAUGAGGAUCACCCAUGUUUUUUUGUCAGAAAUAGGAUAUAGGUCUCUCGUUUUACUAGAAGGAUUUCUUUAUU [JR_SSNG3_Sub088] (Eterna round: R96, puzzle: Same State NG 3) | – | – | – | 0.134 | 0.146 | 0.145
18 | UUGAAGAAUUAAGGAUAUCGAGUCAAGAUGUUAAACAUGAGGAUCACCCAUGUGGGUUGCGGUAUCGAGAAGGUAAAUAACAAG [Mat - Same State NG 2 - JL mod - D53] (Eterna round: R96, puzzle: Same State NG 2) | – | – | – | 0.0236 | 0.0233 | 0.0382
19 | UUGAAGAAUUAAGGAUAUUGAAUACAUAUGUUUAACAUGAGGAUCACCCAUGUGGGUUGCGGUAUCGAGAAGGUAAAUUAAUAG [Mat - Same State NG 2 - JL mod - D9] (Eterna round: R96, puzzle: Same State NG 2) | – | – | – | 0.0984 | 0.142 | 0.118
20 | UUGAAGAAUUAAGGAUAUUGAAUACAUAUGUUUAACAUGAGGAUCACCCAUGUGGGUUGCGGUGUCGAGAAGGUAAAAUAAUAG [Mat - same State NG 2 - JL mod - D95] (Eterna round: R96, puzzle: Same State NG 2) | – | – | – | 0.124 | 0.194 | 0.329
21 | UUGAAGAAUUAAGGAUAUUGAGUACAUAUGUUUAACAUGAGGAUCACCCAUGUGGGUUGCGGUAUCGAGAAGGUAAAAUACUAG [Mat - same State NG 2 - JL mod - D73] (Eterna round: R96, puzzle: Same State NG 2) | – | – | – | 0.126 | 0.156 | 0.0879
22 | UUGAAGAAUUAAGGAUAUUGAUUACAUAUGUUAAACAUGAGGAUCACCCAUGUGGGUUGCGGUAUCGAGAAGGUAAAUUAAUAG [Mat - same State NG 2 - JL mod - D77] (Eterna round: R96, puzzle: Same State NG 2) | – | – | – | 0.0896 | – | –
23 | UUGAAGAAUUAAGGAUAUUGAUUACAUAUGUUAAACAUGAGGAUCACCCAUGUGGGUUGCGGUAUCGAGAAGGUAAAUUACUAG [Mat - same State NG 2 - JL mod - D76] (Eterna round: R96, puzzle: Same State NG 2) | – | – | – | 0.0741 | 0.0633 | 0.0873
24 | UUGAGAUGUACAGGAUAUGGUGAGGAUCACCCACUAGAAGGGUGCACAUGUGAAUCGGACAUGAGGAUCACCCAUGUUGGGCGU (Eterna round: R96, puzzle: Same State NG 1) | – | – | – | 0.224 | 0.108 | 0.209
25 | UUGAUUAACGUAGGAUAUCGACCUACAUGAGGAUCACCCAUGUCUUUGAAUAGAUUUUUUUGUUACGAGAAGGACGUUAUGUAU [JR_SSNG2_Sub066] (Eterna round: R96, puzzle: Same State NG 2) | – | – | – | 0.0496 | 0.0407 | 0.0894
26 | UUGCAGUCAGGUGAGGAUAUCAUGAAUUUAACAUGAGGAUCACCCAUGUGCUGCCUUGCAGCAUAUGAGAAGGCACCUGGCUGCU [JL-ss2-3.02 Brourd Mod] (puzzle: Same State 2) | 0.106 | 0.923 | 0.859 | – | – | –
27 | UUGCCGCGGGUAGGAUAUGGUCACACUUCUAAAACAUGAGGAUCACCCAUGUCCGACACAUAAAGCCAGAAGGACCCGCGGCUC [Erisriin] (Eterna round: R96, puzzle: Same State NG 2) | – | – | – | 0.0474 | 0.0182 | 0.0773
28 | UUGCGCUGUCGAGAGGAUAUGCGGUGAUGGACAUGAGGAUCACCCAUGUUAGCGAUAGCAUUACGGUAGAAGGCUCUACAGCUGC [salish99_ss2_r3_094] (puzzle: Same State 2) | 0.013 | 0.0215 | 0.0219 | – | – | –
